Blank lines part the entries; values can stand above or below the sequence they belong to.
What was measured:
HLA-A*68:02 = experiment: IEDB peptide-MHC binding, purified MHC/competitive/radioactivity; filed as Kd, often an IC50 or EC50 that approximates it; ≥ and ≤ were set here for values at or beyond the usual limits of such assays
HLA-A*01:01 = experiment: as above
HLA-A*29:02 = experiment: as above
HLA-A*23:01 = experiment: as above
HLA-A*26:01 = experiment: as above
HLA-A*30:02 = experiment: as above
HLA-A*24:02 = experiment: as above
HLA-A*02:02 = experiment: as above; settings: source organism: Vaccinia virus WR
HLA-A*02:03 = experiment: as above
HLA-B*08:01 = experiment: as above
HLA-A*02:06 = experiment: as above
HLA-A*30:01 = experiment: as above
HLA-B*51:01 = experiment: as above
HLA-B*53:01 = experiment: as above
HLA-B*35:01 = experiment: as above
HLA-B*40:01 = experiment: as above; settings: source organism: Dengue virus 2 Jamaica/1409/1983
HLA-A*02:01 = experiment: IEDB peptide-MHC binding, purified MHC/competitive/fluorescence; filed as Kd, often an IC50 or EC50 that approximates it; ≥ and ≤ were set here for values at or beyond the usual limits of such assays; settings: source organism: Vaccinia virus WR
[1] = source organism: Dengue virus 3 Martinique/1243/1999
[2] = source organism: SARS coronavirus Tor2
[3] = source organism: Vaccinia virus WR
[4] = source organism: Dengue virus 1 Brazil/97-11/1997
[5] = source organism: Dengue virus 4 Philippines/H241/1956
[6] = source organism: Lymphocytic choriomeningitis virus (strain Armstrong)
[7] = source organism: Dengue virus 2 Jamaica/1409/1983
[8] = source organism: Mammarenavirus caliense
[9] = source organism: Mammarenavirus machupoense

Sequence: LTMKNKAWMV
Kd (HLA-A*68:02; [1]): 16.7 nM

Sequence: VFSAVGNICY
Kd (HLA-A*01:01; [2]): 60.5 nM | Kd (HLA-A*29:02; [2]): 28.3 nM | Kd (HLA-A*23:01; [2]): 15400 nM | Kd (HLA-A*26:01; [2]): 1280 nM | Kd (HLA-A*30:02; [2]): 13.8 nM | Kd (HLA-A*24:02; [2]): 7130 nM

Sequence: FMYTKHSML
Kd (HLA-A*02:02): 2.4 nM | Kd (HLA-A*02:03; [3]): 0.394 nM | Kd (HLA-B*08:01; [3]): 0.2 nM | Kd (HLA-A*02:06; [3]): 222 nM

Sequence: TFKTAHAKK
Kd (HLA-A*30:01; [4]): 99.4 nM

Sequence: MASVEPHWI
Kd (HLA-B*51:01; [4]): 1790 nM | Kd (HLA-B*53:01; [4]): 1400 nM

Sequence: MAYMIGQTGI
Kd (HLA-B*51:01; [5]): 57.1 nM

Sequence: LGSLGCKPLT
Kd (HLA-A*30:01; source organism: Dengue virus 1 Singapore/S275/1990): 1410 nM

Sequence: QFIHFYREPV
Kd (HLA-A*01:01; [6]): ≥ 41300 nM | Kd (HLA-A*29:02; [6]): ≥ 39400 nM | Kd (HLA-A*23:01; [6]): ≥ 69500 nM | Kd (HLA-A*26:01; [6]): ≥ 69700 nM | Kd (HLA-A*30:02; [6]): 5150 nM | Kd (HLA-A*24:02; [6]): ≥ 70300 nM

Sequence: LPEIEDEVF
Kd (HLA-B*53:01; [4]): 1240 nM | Kd (HLA-B*35:01; [4]): 88.1 nM

Sequence: IPPTAGVLA
Kd (HLA-B*51:01; [1]): 6140 nM

Sequence: RTAGMIIMLI
Kd (HLA-A*68:02; source organism: Dengue virus 2 Peru/IQT2913/1996): 61.6 nM

Sequence: VMPVHTLSI
Kd (HLA-A*01:01; [2]): ≥ 78100 nM | Kd (HLA-A*29:02; [2]): 141 nM | Kd (HLA-A*23:01; [2]): 109 nM | Kd (HLA-A*26:01; [2]): ≥ 20700 nM | Kd (HLA-A*30:02; [2]): 4570 nM | Kd (HLA-A*24:02; [2]): 47.2 nM

Sequence: VSIINNAVY
Kd (HLA-A*01:01; [2]): 883 nM | Kd (HLA-A*29:02; [2]): 1070 nM | Kd (HLA-A*23:01; [2]): ≥ 44300 nM | Kd (HLA-A*26:01; [2]): 15300 nM | Kd (HLA-A*30:02; [2]): 9.17 nM | Kd (HLA-A*24:02; [2]): ≥ 58700 nM

Sequence: TSSMRGVYY
Kd (HLA-A*01:01; [2]): 69.3 nM | Kd (HLA-A*29:02; [2]): 263 nM | Kd (HLA-A*23:01; [2]): ≥ 77800 nM | Kd (HLA-A*26:01; [2]): 8300 nM | Kd (HLA-A*30:02; [2]): 124 nM | Kd (HLA-A*24:02; [2]): ≥ 77600 nM

Sequence: EPGQLKLNWF
Kd (HLA-B*53:01; [7]): 593 nM | Kd (HLA-B*35:01; [7]): ≥ 42000 nM

Kd (HLA-A*68:02; source organism: Homo sapiens): ≥ 60000 nM
Sequence: ALRPSTSRSL

Sequence: SCKVKIVPL
Kd (HLA-B*08:01; [3]): 1430 nM

Sequence: IENSSVNVSL
Kd (HLA-B*40:01): 1.59 nM | Kd (HLA-B*08:01; [7]): 764 nM

Kd (HLA-A*68:02; source organism: Homo sapiens): ≥ 60000 nM | Kd (HLA-A*02:06; source organism: Homo sapiens): ≥ 59100 nM
Sequence: KLKKLEEEQI

Sequence: LAHAIGTSI
Kd (HLA-B*51:01; [4]): 157 nM

Sequence: YQPDTGNYI
Kd (HLA-A*29:02; [8]): ≥ 78900 nM | Kd (HLA-A*23:01; [8]): 5790 nM | Kd (HLA-A*24:02; [8]): 5260 nM

Sequence: LYLTQDLFL
Kd (HLA-A*01:01; [2]): ≥ 20400 nM | Kd (HLA-A*29:02; [2]): ≥ 71900 nM | Kd (HLA-A*23:01; [2]): ≥ 81700 nM | Kd (HLA-A*26:01; [2]): ≥ 34000 nM | Kd (HLA-A*30:02; [2]): ≥ 81100 nM | Kd (HLA-A*24:02; [2]): ≥ 70300 nM

Sequence: AAKGASMTL
Kd (HLA-A*30:01; [3]): 0.998 nM

Sequence: SVYTTMFGGV
Kd (HLA-A*68:02; [5]): 9.63 nM | Kd (HLA-A*02:03; [5]): 8.23 nM | Kd (HLA-A*02:06; [5]): 1.96 nM

Sequence: DRRSFFKCF
Kd (HLA-B*08:01; source organism: Vaccinia virus Copenhagen): 75.7 nM

Sequence: QYVRSGKDHV
Kd (HLA-A*01:01; [6]): ≥ 70400 nM | Kd (HLA-A*29:02; [6]): ≥ 71400 nM | Kd (HLA-A*23:01; [6]): ≥ 50200 nM | Kd (HLA-A*26:01; [6]): ≥ 69700 nM | Kd (HLA-A*30:02; [6]): 1440 nM | Kd (HLA-A*24:02; [6]): ≥ 70300 nM

Sequence: MSKSHAAYI
Kd (HLA-A*30:01; [3]): 0.227 nM

Sequence: LMKMKKKTWL
Kd (HLA-B*08:01; [5]): 24.1 nM

Sequence: LRTTTVSGKL
Kd (HLA-B*08:01; [1]): 9540 nM

Sequence: LFLAFVVFL
Kd (HLA-A*01:01; [2]): 812 nM | Kd (HLA-A*29:02; [2]): 7980 nM | Kd (HLA-A*23:01; [2]): 1880 nM | Kd (HLA-A*26:01; [2]): 571 nM | Kd (HLA-A*30:02; [2]): ≥ 34300 nM | Kd (HLA-A*24:02; [2]): ≥ 29900 nM

Sequence: VKIPTHRHI
Kd (HLA-A*01:01; [6]): ≥ 78100 nM | Kd (HLA-A*29:02; [6]): 15400 nM | Kd (HLA-A*23:01; [6]): ≥ 77700 nM | Kd (HLA-A*26:01; [6]): ≥ 77900 nM | Kd (HLA-A*30:02; [6]): ≥ 76900 nM | Kd (HLA-A*24:02; [6]): ≥ 77500 nM

Sequence: LAGPMPVTV
Kd (HLA-B*51:01; [4]): 870 nM

Sequence: DKRMKSLAM
Kd (HLA-B*08:01; [3]): 9.85 nM

Sequence: TVFFVLMMLV
Kd (HLA-A*68:02; [5]): 38.7 nM

Sequence: SLIPRLVDF
Kd (HLA-B*08:01; [3]): 12.7 nM

Sequence: VLPFDIKKL
Kd (HLA-A*02:01): 525 nM

Sequence: RFKTKGRYNL
Kd (HLA-A*29:02; [9]): 104 nM | Kd (HLA-A*23:01; [9]): 87.5 nM | Kd (HLA-A*24:02; [9]): 579 nM

Reference: the Immune Epitope Database (IEDB)
